Test results as given in patent publication US8012929B2, “Peptides directed for diagnosis and treatment of amyloid-associated diseases” (Tel Aviv University Future Technology Development L.P., priority 2002, dated 2011).
Entries after “also recorded” stand apart in the source; their conditions may differ. Square brackets hold non-standard residues; d marks the D form. Ends that are not written are not given here. Aib = CC(C)(N)C(=O)O

Legend:
[1] = FT-IR of Aib-modified IAPP peptide fragments; format: physicochemical; conditions: two week aged peptide solutions
Description: Fourier Transform Infrared Spectroscopy—Infrared spectra were recorded using a Nicolet Nexus 470 FT-IR spectrometer with a DTGS detector. Samples of two week aged peptide solutions, were suspended on a CaF2 plate and dried by vacuum. The peptide deposits were resuspended with D2O and subsequently dried to form thin films. The resuspension procedure was repeated twice to ensure maximal hydrogen to deuterium exchange. The measurements were taken using a 4 cm^−1 resolution and 2000 scans averaging. The transmittance minima values were determined by the OMNIC analysis program (Nicolet).

[2] = Congo Red staining and birefringence of wild-type and Aib substituted IAPP peptides; format: physicochemical; conditions: 5 mM peptide aged for 10 days
Description: Congo Red Staining and Birefringence—A 10 μL suspension of 5 mM peptide solution in 10 mM Tris buffer, pH 7.2 aged for 10 days was allowed to dry overnight on a glass microscope slide. Staining was performed by the addition of a 10 μL suspension of saturated Congo Red (CR) and NaCl in 80% ethanol (v/v) solution. The solution was filtered via 0.2 μm filter. The slide was then dried for a few hours. Birefringence was determined with a SZX-12 Stereoscope (Olympus, Hamburg, Germany) equipped with cross polarizers. 100× magnification is shown.

[3] = Transmission electron microscopy of wild-type and Aib modified hIAPP peptides; format: physicochemical; conditions: 5 mM peptide, aged 4 days (wt) or 10 days (modified)
Description: Peptide solutions—freshly prepared stock solutions were prepared by dissolving the lyophilized form of the peptides in dimethyl sulfoxide (DMSO) at a concentration of 100 mM. To avoid any pre-aggregation, fresh stock solutions were prepared for each experiment. […] Transmission Electron Microscopy—a 10 μL sample of 5 mM peptide solution in 10 mM Tris buffer, pH 7.2 aged for 4 days (for wt peptides) and for 10 days (for modified peptides) was placed on 400-mesh copper grids (SPI supplies, West Chester Pa.) covered by carbon-stabilized Formvar film. After 1 minute, excess fluid was removed, and the grid was then negatively stained with 2% uranyl acetate in water for another 2 minutes. Samples were viewed in a JEOL 1200EX electron microscope operating at 80 kV.

hIAPP1-37 = target: T1, hIAPP1-37 (Homo sapiens, UniProt P10997); assay: Thioflavin T fluorescence assay of hIAPP fibrillization (sodium acetate buffer); format: biochemical; conditions: 4 μM hIAPP1-37, 40 μM inhibitor, 10 mM sodium acetate pH 6.5
T1 construct: purchased CalBiochem (La Jolla Calif., USA)
T1 sequence (P10997 34-70 limits assumed): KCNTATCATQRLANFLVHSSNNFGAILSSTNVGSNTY
Description: Thioflavin T fluorescence assay—hIAPP fibrillization was monitored by Thioflavin T dye binding assay. hIAPP1-37 stock solution was diluted to a final concentration of 4 μM in 10 mM sodium acetate buffer (pH 6.5) with or without inhibitors (40 μM), and a final concentration of HFIP of 1% (vol). Immediately after dilution, sample was centrifuged for 20 minutes in 20,000×g at 4° C. and the supernatant fraction was used for fluorescence measurements. In every measurement ThT was added to a 1 ml sample at a final concentration of 3 μM and measurements were effected by using Perkin-Elmer (excitation 450 nm, 2.5 nm slit; emission 480 nm 10 nm slit). Background was subtracted from all samples.

[4] = Congo red binding assay with polarization microscopy (Example 4); format: physicochemical
Description: Congo red (CR) staining combined with polarization microscopy was utilized to test amyloidogenicity of the peptides of the present invention. […] Invest. 31:232-8; Lansbury (1992) Biochemistry 31:6865-70]. […] Staining was effected by the addition of 1 mM CR in 10 mM Tris buffer pH 7.2 followed by a 1 minute incubation. To remove excess CR, slides were rinsed with double-distilled water and dried. Saturated CR solutions solubilized in 80% ethanol (v/v) were used for poorly aggregating peptides. In such cases, staining was effected without rinsing. Birefringence was determined using a WILD Makroskop m420 (×70) equipped with a polarizing stage.

[5] = Aggregate mean particle size by dynamic light scattering; format: physicochemical; conditions: 100 μM peptide, 1% DMSO, 10 mM Tris pH 7.2
Description: Therefore, the average size of the aggregates, formed by the various peptides, was determined using dynamic light scattering (DLS) experiments.
Method—Freshly prepared peptide stock solutions at a concentration of 10 mM were diluted in 10 mM Tris buffer pH 7.2 and further filtrated through a 0.2 μm filter to a final concentration of 100 μM peptide and 1% DMSO. Particle size measurement was conducted with a laser-powered ALV-NIBS/HPPS non-invasive backscattering instrument. Autocorrelation data was fitted using the ALV-NIBS/HPPS software to derive average apparent hydrodynamic diameters.

[6] = Negative staining electron microscopy of fibril formation (Example 5); format: physicochemical; conditions: 2 mM peptide incubated overnight
Description: Method—Peptide solutions (2 mM peptide in 10 mM Tris buffer pH 7.2), were incubated overnight at room temperature. Fibrils formation was assessed using 10 μl sample placed on 200-mesh copper grids, covered with carbon-stabilized formvar film (SPI Supplies, West Chester Pa.). Following 20-30 seconds of incubation, excess fluid was removed and the grids were negatively stained with 2% uranyl acetate in water. Samples were viewed in a JEOL 1200EX electron microscope operating at 80 kV.

[7] = Kinetic aggregation assay (turbidity at 405 nm) of IAPP peptide fragment and alanine mutants; format: physicochemical; conditions: 2 mM peptide, 10 mM Tris pH 7.2, 2% DMSO, room temperature
Description: To study self-assembly of the IAPP peptide derived fragments, aggregation and insolubilization kinetics were monitored using turbidity measurements at 405 nm.
Kinetic aggregation assay—Fresh peptide stock solutions were prepared by dissolving lyophilized form of the peptides in DMSO, a disaggregating solvent, at a concentration of 100 mM. To avoid any pre-aggregation, fresh stock solutions were prepared prior to each and every experiment. Peptide stock solutions were diluted into assay buffer and plated in 96-well plates as follows: 2 μl of peptides stock solutions were added to 98 μl of 10 mM Tris pH 7.2, resulting in a 2 mM final concentration of the peptide in the presence of 2% DMSO. Turbidity data was measured at 405 nm. A buffer solution including 2% DMSO was used as a blank. Turbidity was measured at room temperature over several time points.

MBP-IAPP1-37 = target: T2, MBP-IAPP1-37 (Homo sapiens, UniProt P10997); assay: Binding of MBP-IAPP to membrane-spotted peptide arrays; conditions: membrane-bound hIAPP decamers, 10 μg/ml MBP-IAPP1-37, densitometry, semiquantitative
T2 construct: incubated in the presence of 10 μg/ml MBP-IAPP1-37 at 4° C. for 12 h; made in house; host or cells: E. coli BL21(DE3)
T2 sequence (P10997 34-70 limits assumed): T1 sequence (P10997 34-70 limits assumed)
Description: IAPP peptide array construction—Decamers corresponding to consecutive overlapping sequences of hIAPP1-37 SEQ ID NOs. 61-88) were synthesizes on a cellulose membrane matrix using the SPOT technique (Jerini AG, Berlin, Germany). The peptides were covalently bound to a Whatman 50 cellulose support (Whatman, Maidstone, England) via the C-terminal amino-acids. N-terminal acetylation was used for peptide scanning because of higher stability to peptide degradation, and better representation of the native recognition motif.
Thereafter, cellulose membrane was incubated in the presence of 10 μg/ml MBP-IAPP1-37 at 4° C. for 12 h in the same blocking buffer. The cellulose membrane was then washed repeatedly with 0.05% Tween 20 in TBS. […] HRP-conjugated goat anti mouse antibodies (Jackson Laboratories, USA) were used as a secondary antibody. Immunoblots were developed using the Renaissance western blot Chemiluminescence Reagent (NEN, USA) according to Manufacturer's instructions and signal was quantified using densitometry. Regeneration of the cellulose membrane for reuse was carried out by sequential washing with Regeneration buffer I including 62.5 mM Tris, 2% SDS, 100 Mm 2-mercaptoethanol, pH 6.7, and Regeneration buffer II including 8 M urea, 1% SDS, 0.1% 2-mercaptoethanol. Efficiency of the washing steps was monitored by contacting the membrane with the chemiluminescence reagent, as described.
To determine the specific role of the phenylalanine residue in IAPP-self assembly, a membrane-based binding assay was preformed in order to systematically explore the molecular determinants that facilitate the ability of the full-length hIAPP to recognize the “basic amyloidogenic unit”. To this end, the ability of MBP-IAPP (see Example 6) to interact with an array of peptides in which the phenylalanine position was systematically altered (SEQ ID NOs. 91-110), was addressed.

[8] = Kinetic aggregation assay, turbidity at 405 nm (Example 8); format: physicochemical; conditions: hIAPP 22-29 analogues incubated for 1 week
[9] = peptide solutions incubated for four days

Substance: ANFLVH
- secondary structure by FT-IR [1]: typical of β-sheet spectra
- Congo Red birefringence [2]: typical yellow-green birefringence
- structures by electron microscopy [3]: formed fibrillar structures

Substance: Gln-Lys-Leu-Val-Phe-Phe [EG05, reference compound]
- inhibition of IAPP fibrillization (ThT fluorescence at plateau) (hIAPP1-37): effective inhibition of IAPP fibrillization

Substance: N1A: alanine-scan mutant of the hIAPP peptide fragment, SEQ ID NO: 2 (AFGAILSS)
- Congo red binding and birefringence [4, 9]: bound CR and exhibited the characteristic green/gold birefringence
- apparent hydrodynamic diameter of the structures formed [5]: Smaller structures
- fibril structures by electron microscopy [6]: tangled net-like structures
- kinetics of aggregation (turbidity at 405 nm) [7]: higher kinetics of aggregation

Substance: wild type peptide: wild-type eight amino-acid hIAPP peptide fragment, NFGAIL motif followed by two serines, SEQ ID NO: 1 (NFGAILSS)
- Congo red binding and birefringence ([4]; peptide solution incubated for 14 days): significant CR birefringence
- Congo red binding and birefringence [4, 9]: bound CR and exhibited the characteristic green/gold birefringence
- apparent hydrodynamic diameter of the structures formed [5]: very similar hydrodynamic diameters
- fibril structures by electron microscopy [6]: tangled net-like structures

Substance: Aib-NF-Aib-VH ([Aib]NF[Aib]VH)
- secondary structure by FT-IR [1]: characteristic to a random coil conformation
- Congo Red birefringence [2]: no birefringence
- structures by electron microscopy [3]: no fibrillar structures were evident

Substance: hIAPP3-12: membrane-spotted decamer of hIAPP residues 3-12 (NTATCATQRL)
- binding to MBP-hIAPP1-37 (MBP-IAPP1-37): no binding

Substance: NVGAILSS
- endpoint turbidity [8]: lower extent

Substance: D-Pro-Aib [EG28]
- inhibition of IAPP fibrillization (ThT fluorescence at plateau) (hIAPP1-37): inhibition potential

Substance: I5A: isoleucine to alanine mutant of the hIAPP peptide fragment, SEQ ID NO: 5 (NFGAALSS)
- Congo red binding and birefringence [4, 9]: bound CR and exhibited rare but characteristic birefringence
- apparent hydrodynamic diameter of the structures formed [5]: Smaller structures
- fibril structures by electron microscopy [6]: lower in comparison to that of wild type; also recorded: More distinct structures and longer fibrils, albeit less frequent
- kinetics of aggregation (turbidity at 405 nm) [7]: reduced the kinetics of aggregation but did not abolish it completely

Substance: NLGAILSS
- endpoint turbidity [8]: lower extent

Substance: Aib-NF-Aib-V ([Aib]NF[Aib]V)
- secondary structure by FT-IR [1]: characteristic to a random coil conformation
- Congo Red birefringence [2]: no birefringence
- structures by electron microscopy [3]: no fibrillar structures were evident

Substance: ANFLV
- secondary structure by FT-IR [1]: typical of β-sheet spectra
- Congo Red birefringence [2]: typical yellow-green birefringence
- structures by electron microscopy [3]: formed fibrillar structures

Substance: NAGAILSS
- endpoint turbidity [8]: lower extent

Substance: NIGAILSS
- endpoint turbidity [8]: some low degree of turbidity

Substance: L6A: leucine to alanine mutant of the hIAPP peptide fragment, SEQ ID NO: 6 (NFGAIASS)
- Congo red binding and birefringence [4, 9]: bound CR and exhibited rare but characteristic birefringence
- apparent hydrodynamic diameter of the structures formed [5]: Smaller structures
- fibril structures by electron microscopy [6]: lower in comparison to that of wild type; also recorded: More distinct structures and longer fibrils, albeit less frequent
- kinetics of aggregation (turbidity at 405 nm) [7]: reduced the kinetics of aggregation but did not abolish it completely

Substance: G3A: alanine-scan mutant of the hIAPP peptide fragment, SEQ ID NO: 4 (NFAAILSS)
- Congo red binding and birefringence [4, 9]: bound CR and exhibited the characteristic green/gold birefringence
- apparent hydrodynamic diameter of the structures formed [5]: very similar hydrodynamic diameters
- fibril structures by electron microscopy [6]: tangled net-like structures
- kinetics of aggregation (turbidity at 405 nm) [7]: essentially the same profile as that of wild type peptide

Substance: D-Phe-D-Pro [EG29]
- inhibition of IAPP fibrillization (ThT fluorescence at plateau) (hIAPP1-37): inhibition potential

Substance: hIAPP2-11: membrane-spotted decamer of hIAPP residues 2-11 (CNTATCATQR)
- binding to MBP-hIAPP1-37 (MBP-IAPP1-37): third binding spot

Substance: hIAPP1-10: membrane-spotted decamer of hIAPP residues 1-10 (KCNTATCATQ)
- binding to MBP-hIAPP1-37 (MBP-IAPP1-37): no binding
